Laboratory results taken from the nanobody polyreactivity screen of Harvey et al. (2022).

Test: yeast display, Sf9 membrane polyspecificity reagent, FACS + sequencing; frameworks hold sequencing errors
How it was run: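 Galactose-induced (36–48 hours) yeast carrying a synthetic nanobody display library were exposed to 10% biotinylated, detergent-solubilized Sf9 membrane reagent at 4 °C for 1 hour. FACS followed streptavidin microbead enrichment, using low and high (top ~1%) gates for expression (anti-HA) and reagent binding (streptavidin). Colony PCR, MiSeq 2 × 250 sequencing and CDR-length filtering followed. Labels for polyreactivity reflect the gate of origin.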

Row | Sequence | polyreactivity (PSR sort gate)
1 | QVQLVESGGGLVQAGGSLRLSCAASGIIFQFYAMGWYRQAPGKERELVAAISRSGGITHYADSVKGRFTISRDNAKNTVYLQMNSLKPEDTAVYYCNAVQPARFVGGFGTGVDYWGQGTQVTVSS | high polyreactivity
2 | QLQLVESGRGLVQAGGTLRLSCAASGRIFGKNAIGSYRQAPGKEMELVAAITGSGGRTYNADSVKGRFTISRDNAKNTVYLQMNSMKPEDTAVYYCAVRVTSYYRTMDYWGQGTQGTVSS | low polyreactivity
3 | QVQLVESGGGLVQAGGSLRLSCAASARTFTRYAIGWYRQAPGKERELVAAISFSVGSTYYADSVKGRFTISRDNAKYSVYLQMNRLKPEDTAVYYCARPSGDAWEGPRMDYWGQCTQVTVSS | low polyreactivity
4 | QVQLVESCGGLVQAGGSLRLSCAASGSTFVHNAMGWNRQAPGKESELVAAITSRTGITYYADSLKGRFTISRDNAKNTFYLEMNSLKPEDTSVFYCAKRHVRTHRLQFDYWGQGTQVTVSS | high polyreactivity
5 | QVQLVESGGGIVQAGGSLRLSCAASGSIFEPNAMGWYRQAPGQEREFVAAISGSGGSTYYADSVKGRFTSSRDNAKNTVYLQRNSLKPEDTAVYYCNALYLRTTPQDYDYWGQGTQVTVSS | high polyreactivity
6 | QVQLVESGGGLVQAGGSLRLRCAASGSTFSRYTMGWYRQAPGKERELVAAISKSGGSTYYADSVKGRFTISRDNAKNTVYLQMNSLKPEDTAVYYCAALVRAGTSLDFDYWGQGTQVTVSS | high polyreactivity
7 | QVQLVESGGGLVQAGGSGRLSCAASGRTTRDYAMGWYRQAPGKERELVAAIRWRGVSTYYADSVKGRFTISRDNAKNTVDVQMNSLKPEDTAVYYCAKRESVSTSAGKGAMDSWGQGTQVTVSS | high polyreactivity
8 | QDQLVESGGGLVQAGGSLRLSCAASGGIFPVNALGWYRQAPVKERELVATITYDGGNTYYADSVKGRFTISRDNAKKTVYLQMNSLKREDTAVYYCAKDSLSFYGYISYIGYGYDYWGQGTQVTVSS | low polyreactivity
9 | QVQLVESGGGLVQAGGSLRLSCAASGSIFPHYAMGWYREAPGKERELVAAISRGGSTNYADSVKGRFTISRDNAKNTVYLQMNSLKPEDTAVYYCNALRYYSRFQYAVAYRYDYWGQGTQVTVSS | high polyreactivity
10 | QVQLEESGGGLVQAGGSLRLTCAASGSILVYNAMGWYRQAPGKERELVAGISSSGTRTYYADSVKGRFTISRDNAKITFYLQMNSLKPEDTAVYYCNALPVRGHQEYDSWGQGTQVNVSS | high polyreactivity
11 | QVQLVESGGGLGQAGGSLRLSCAASGFTYYYYAMGWYIQAPRKDRELVAAISGGGGSTYYADSVKGRFTLSRDNAKNTVYLQMNSLKQVDTAVYYCAAVGSWRYYYDYDYWGQGTQVNVSS | high polyreactivity
12 | QVQLVESGGGLVQAGGSLRLSCAASGITFCYYGMGRYRQAPGKERELVAAISSGGRTYYADSVKGRFTISRDNAKNTVYLQMNSLNPEDSAVYYCADRTKYIFVYQGVYWGQGTQVTVSS | high polyreactivity
13 | QVQLVESGGGLVQAGGSLRLSCAASGRTFYGYAMGWYRQAPGKERELVAAISSNNGRTYYADSVKGRFTISRDNAKNTVYLQMNSLKPEDTAVYYCAAEAVSILWRDYDYWGQGTQVTVSS | low polyreactivity
14 | QVQLVESGGGLVQAGGSLRLSCAASGSTFYRYAMGCYRQAPGKERELVAAISSRGGSTYYADSVKGRFTISRDNAKNTVYLQMNSLKPEDTAVYYCAAQVYGTAGYYYWGQGTQVTVSS | high polyreactivity
15 | QVQLVESGGGLVQAGGSLRLSCAASGRIFGGNAMGWFRQAPGKERELVAASTTRGGSTSADSVKGRFTISRDNAKNTVYLHMNSLKPEATAVYYCAVARSSHGGPRYLVRTYGYWGQATQVTVSS | low polyreactivity
16 | QVQLVESGGGLVQAGGSLRLSCAASGITFYGYAMGWYRQEPGKERELVATISSGGGTNYADSVKGRFTISRDNAKNTVYLQMNSLKPEDTAVYYCATDLSTVDYNYWGQGTQVTVSS | low polyreactivity
17 | QVQLVESGGGLVQEGGSLRLSCAASGFTVTDYAMGLYRQAPGKERELVAAITSSGGRTYYADSVKGRFTISRDNAKNTVYLQMNSLKPEDTAGYYCTARPHGSWFEYDYWGQGTEVTVSS | high polyreactivity
18 | QVQLVESGGGLVQAGGSLRLSCAASGFTFQYYAMGWYRQAPGKERELVAAISWSGDSTYYADSVKGRFTISRDNAKNTVYLQMNSLKPEDTAVYYCAVYYTRGYDYWGQGTQVTVSS | high polyreactivity
19 | QVQLVESGGGVVQAGGSLRLSCAASGRNFYSYAMGLYTQAPGKERELVAAISKRGTSTYYADSVKGRFTISRDNAKNTVYLQMNSLKPEDTAVYYCAAVHWRYQYSLRYDYWGQGTQVTVSS | high polyreactivity
20 | QVQLVESGGGLVQAGGSLRLSCAASGSIFVRNTMGWYRQAPGKERELVASIDWSGGITYYADSVKGRFTISRDNAKNTVYLQMNSLKPEDTAVYYCNAVFLYPFNVPTMEYWGQGTQVTVSS | low polyreactivity
21 | QVQLVESGGGLVQAGGILRLSCAASGFIFWDYAMGWYRQAPGTERELVADISDSGGDTYYADSVKGRFTISRDNAKNTVYLQMNSLKPEDTAVYYCAADVELWVFRGQQYDYWGQVTQVTVSS | low polyreactivity
22 | QVQLVESGGGLVQAGGSLRLSCAASGRTLPFYAMGWYRQAPGKERELLAAINRSGGSTYYADSVKGRFTISRDNAKNTVSLQMNILKPEDTAVYYGNNVTVPGLGYYPPSYSNGHWGQGTQVSVSS | high polyreactivity

Row | Sequence | polyreactivity (PSR sort gate)
23 | QVQLVESGGGLVQAGGSLRLSCAASGIFGGYAMGWYIQAPRKERELVAAITSGGSTYYADSVKGRFTISRDNAKNTVYLQMNSLKPEDTAVYYCAARPRGTYSRLGYWGQGTQVTVSS | high polyreactivity
24 | QVQLVESGGGLVQAGGSLRLSCAASGFTFVRYAMGWYRQAPGKERELVAAISRSSGSTYYADSVKGRFTISRDNAKNTVYLQMNSLKPEDTAVYYCARRYGRYSGTYDYWGQGTQVTVSS | high polyreactivity
25 | QVQLVESGGGLVQAGGSLRLSCAASGSTFSVYAMGWYRQAPGKERELVASISSSVGRTFYADSVKGRFTISRDNAKNTVYLQMNSLKPEDTAVYYCAARSYQVKEYDHWGQGTQVTVSS | high polyreactivity
26 | QVQLVESGGGLVQAGGSLRLSCAASGGIFSVYAMGWYRQAPGKERELVAAITTSGGSTYYADSVKGRFTISRDNAKNTVYLQMNSLKPEDTAVYYCAADYPPTFYYWYEEYEYWGQGTQVTVSS | low polyreactivity
27 | QVQLVESGGGLVQAGGSLRLSCAASGFTFRSYAMGWYRQAPGKERELVAAISSTGRTYYADSVKGRFTISRDNAKNTVYLQMNSLKPEDTAVYYCARNIPVSYYRYGYWGQGTQVTVSS | high polyreactivity
28 | QVQLVDSGGGLVQAGGSLRLSCAASVQTIYQKAMGWYRPAPGKERELVAAITRSGGSTRYADSVKGRFTISRDNAKNTVYLEMSSLKPEDTSVFYCNARYRIGSWYEFGSWGQGTQVTVSS | high polyreactivity
29 | QVQLVESGGGLVQAGGSLRLICAASGITFYIYGMGWYRQAPGKERELVAAITSGGSTYYADSVKGRFTISRDNAKNTVYLQMNSLKPEDTAVYYCAAGRYYGKGYYYWGQGTQVTVSS | high polyreactivity
30 | QVQLVESGGGLVQAGGSLRLSCAASGSSFDVYTMGWYRQAPGKERELVAAINTGGGSTYYADSVKGRFTISRDNAKNTVYLQMNSLKPEDTAVYYCAASVYHYGPLYYWGQGTQVTVSS | low polyreactivity
31 | QVEHLDSGGGLVQAGGILRLSCASSGIIFGYYAMGWYRQEPGKERELVAGITYRTGSTYYADSVKGRFTISRDNAKNTVYLQMNSLKPEDTEVYFCAATQYTRNYSSWYYYWGQGTQVTVSS | high polyreactivity
32 | QVQLVESGGGLVQAGGSLRLSCAASGFTFFFNAMGWYRQAPGKERELVASIRSDGDTNYADSVKGRFTISRDNAKNTVYLQMNSLKPEDTAVYYCAKVWYVFRYVSTEYDYWGQGTQVTVSS | high polyreactivity
33 | QVQLVESGGGLVQAGGSLRLSCAASGRTLSYYAMGWYRQAPGKEREFVAAITGSGGSTYYADSVKGRFTISRDNAKNNVYLQMNSLKPEDTAVYYCNATGLGVFTVEYYYWGQGTQVTVSS | low polyreactivity
34 | QVQLVESGGGLVQAGGSLRLSCAASGITFYYYTMGWYRQAPGKERELVAAITSRGGNTYYADSVKGRFTISRDYAKNTVYLQMNSLKPEDTAVYFCAASRFSSRGYGYWGQGTQVTVCS | high polyreactivity
35 | QVQLVESGGGLVQAGGSLRLSCAASGSIFRRNVMGWYRQAPGKERELVAAITGSGGSTYYADSVKGRFTISRDNAKNTVYLQMNSLKPEDTAVYYCAKVPYYSRPHDYWGQGTQVTVSS | high polyreactivity
36 | QVQLVESGGGLVQAGGSLRLSCAASGRTFYPNAMGWSRQAPGKEREVVAAINSGGSTYYADSVKGRFTISRDKAKNTVYLQMNSLKPEDTAVYYCNAERRIAYEYWGQGTQVTVSS | low polyreactivity
37 | QDQLVESGGGLVQAGGSLRLSCAASGRIFVPYSKGWYRQATGKERELVAAISLRGGTTYYSDSVKGRFTISRDNAKNTVYLQMNSLKPEDTAVYYCAARGYVSVWRPYHWFVAGDYWGQGTQVTVSS | high polyreactivity
38 | QVQLVESGGGLVQAGGSLRLSCAASGYTCDANAMGWYRQATGKERELVASISSISDSTDYADAVKGRITISRDNATNTVYLQMKILKPEDTAVYYCARSDVKPGRQERDYWGQGTQVTVSS | low polyreactivity
39 | QVQLVESGGGLVQAGRSLRLSCAASGLTFVNYTMGCYRQAPGKEREFVAAITSSGGSSTYYADSVKGRFTHSRDNAKNTVYLQMNSLYPEDTAVYYCAAGFTLYVDIVILTVNTVDYWGQGTQVTVSS | low polyreactivity
40 | QVQLVESGGGLVQAGGSLRLSCAASGFIFDYYAMGWYRQAPGKERELVAAITRDGGGTYYADSVKGRFTISRDNAKNTVYLQMNSLKPEDTAVYYCAARRAVRLYYWGQGTQVTVSS | high polyreactivity
41 | QVQLVESGGGLVQAGVSLRLSCAASGSIFYAYAMGWYRQAPGKERELVAVINSGGSTYYADSVKGRFRISSEYAKNTVYLQMNSLKPEDTAVYYCNGTQYRGKYDYPPPGRGYYYWGQGTHVTVSS | high polyreactivity
42 | QVQLVESGGGLVQAGGSLRLSCAASGSIFYTNVMGWYRQAPGKERELVAVISSGGSTYYADSVKGRFTISRDNAKNTVYFQMNSLKPEDTAGYYCNADSVSSPPYYDYWGQGTQVTVSS | high polyreactivity
43 | QVQLVESGGGLVQAGGSLRLSCAASGSIFAYAMGWYRQAPGKERELVAGISSSGGRTYYADSVKGRFTISRDNAKNTVYLQMNRLKPEDTAVYYCAAKRWGLYKGYNCGQGTQVTVSS | high polyreactivity
